In patent US7049122B2, “Mutant-type lipases and applications thereof” (priority 2001, dated 2006):

What was measured:
[1] = tested on: CCCC(=O)Oc1ccc([N+](=O)[O-])cc1; assay: Kinetic analysis of hydrolysis of p-nitrophenyl butyrate (p-nitrophenol formation), wild-type lipase; type: biochemical, Staphylococcus epidermidis; details: other: wild-type, substrate p-nitrophenyl butyrate, 50 mM phosphate buffer (pH 6.0), 37° C., means ± standard error, three experiments
Excerpt: (§1) A fragment of the gehC gene (designated “Lys-303” gene), which encoded an amino acid sequence corresponding to that of the S. epidermidis lipase following proteolytic cleavage between Ala-302 and Lys-303, was synthesized by polymerase chain reaction (PCR) using a chromosomal DNA from a S. epidermidis isolated from a patient in Chang-Gung Hospital (Keelung, Taiwan) as template. The gehC gene is a Staphylococcus epidermidis strain 9 lipase gene. The gene consisted of a single open reading frame of 2064 nucleotides, which encoded a protein of 688 amino acids with a predicted molecular mass of 77 kDa. The Lys-303 gene (SEQ ID NO:13) encoded an active lipase (SEQ ID NO:14), which was about 43 kDa in molecular weight. The Lys-303-encoded lipase is also known as the “43 kDa” or “wild-type” lipase. Two primers: an N-terminal primer of SEQ ID NO:1 (5′-[…]-3′) and a C-terminal primer of SEQ ID NO:2 (5′-[…]-3′) were used in this synthetic process.
(§2) The purified enzymes and substrate p-nitrophenyl butyrate (2.64 mM predissolved in 2.1% Triton X-100) were mixed in 50 mM phosphate buffer (pH 6.0). The reactions were carried out at 37° C. for 15 min and were terminated by the addition of acetone (1:1, v/v) (Kazlauskas 1994). The absorption values of the reaction product (p-nitrophenol) at 346 nm were determined, and the hydrolase activity (a general indicator for the lipolytic activity) of the purified enzymes was obtained, after converting the absorption values into mmols of p-nitrophenol quantity (at pH 6.0) curve. The molar extinction coefficient of p-nitrophenol under this condition was 2988[…].
(§3) The mutation apparently affected the enzyme's ability to stabilize the transition state more than it affected the substrate binding ability of the enzyme. […] The kcat/Km ratio is the pertinent parameter to determine kinetic efficiency of an enzyme.

[2] = tested on: CCCC(=O)Oc1ccc([N+](=O)[O-])cc1; assay: Kinetic analysis of hydrolysis of p-nitrophenyl butyrate (p-nitrophenol formation), mutant V649I; type: biochemical, Staphylococcus epidermidis; details: other: V649I, substrate p-nitrophenyl butyrate, 50 mM phosphate buffer (pH 6.0), 37° C., means ± standard error, three experiments
Excerpt: (§4) The mutant-type lipase is preferably obtained from site-directed mutagenesis of a lipase isolated from Staphylococcus, most favorably Staphylococcus epidermidis. The mutant lipase from Stapylococcus epidermidis that has an alanine residue replacing the methionine residue which immediately follows the serine residue of the Ser-His-Asp catalytic triad has the amino acid sequence of SEQ ID NO: 15. The mutant lipase from Stapylococcus epidermidis that has an isoleucine residue replacing the valine residue which immediately follows the histidine residue of the Ser-His-Asp catalytic triad has the amino acid sequence of SEQ ID NO: 17.
as §2

[3] = tested on: CCCC(=O)Oc1ccc([N+](=O)[O-])cc1; assay: Kinetic analysis of hydrolysis of p-nitrophenyl butyrate (p-nitrophenol formation), mutant H648K; type: biochemical, Staphylococcus epidermidis; details: other: H648K, substrate p-nitrophenyl butyrate, 50 mM phosphate buffer (pH 6.0), 37° C., means ± standard error, three experiments
Experimental: as §2

[4] = tested on: CCCC(=O)Oc1ccc([N+](=O)[O-])cc1; assay: Kinetic analysis of hydrolysis of p-nitrophenyl butyrate (p-nitrophenol formation), mutant M419A; type: biochemical, Staphylococcus epidermidis; details: other: M419A, substrate p-nitrophenyl butyrate, 50 mM phosphate buffer (pH 6.0), 37° C., means ± standard error, three experiments
Excerpt: as §4, §2, §3

[5] = biological target: Staphylococcus epidermidis strain 9 lipase, wild-type (recombinant 43 kDa "Lys-303" lipase, C-terminal His-tag), SEQ ID NO:14 (Staphylococcus epidermidis, UniProt P0C0R3); assay: Kinetic analysis of hydrolysis of p-nitrophenyl butyrate (p-nitrophenol formation), wild-type lipase; type: biochemical; details: substrate p-nitrophenyl butyrate, 50 mM phosphate buffer (pH 6.0), 37° C., means ± standard error, three experiments
Sequence of Staphylococcus epidermidis strain 9 lipase, wild-type (recombinant 43 kDa "Lys-303" lipase, C-terminal His-tag), SEQ ID NO:14 (P0C0R3 303-688): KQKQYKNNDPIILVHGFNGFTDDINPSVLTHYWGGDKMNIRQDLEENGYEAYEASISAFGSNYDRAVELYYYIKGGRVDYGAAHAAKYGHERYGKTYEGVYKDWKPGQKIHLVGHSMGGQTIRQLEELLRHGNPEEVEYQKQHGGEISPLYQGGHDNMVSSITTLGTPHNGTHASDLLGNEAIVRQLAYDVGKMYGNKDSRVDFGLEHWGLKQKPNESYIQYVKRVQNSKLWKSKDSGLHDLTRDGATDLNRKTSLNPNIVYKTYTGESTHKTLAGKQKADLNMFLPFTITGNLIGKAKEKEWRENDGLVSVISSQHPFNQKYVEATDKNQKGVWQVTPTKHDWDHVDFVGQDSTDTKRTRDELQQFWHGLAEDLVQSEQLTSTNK
Excerpt: as §1, §2, §3

[6] = biological target: Staphylococcus epidermidis strain 9 lipase variant M419A (Met-419 to Ala), SEQ ID NO:15 (Staphylococcus epidermidis, UniProt P0C0R3, M419A); assay: Kinetic analysis of hydrolysis of p-nitrophenyl butyrate (p-nitrophenol formation), mutant M419A; type: biochemical; details: M419A vs wild-type; substrate p-nitrophenyl butyrate
Sequence of Staphylococcus epidermidis strain 9 lipase variant M419A (Met-419 to Ala), SEQ ID NO:15 (P0C0R3 303-688 M419A): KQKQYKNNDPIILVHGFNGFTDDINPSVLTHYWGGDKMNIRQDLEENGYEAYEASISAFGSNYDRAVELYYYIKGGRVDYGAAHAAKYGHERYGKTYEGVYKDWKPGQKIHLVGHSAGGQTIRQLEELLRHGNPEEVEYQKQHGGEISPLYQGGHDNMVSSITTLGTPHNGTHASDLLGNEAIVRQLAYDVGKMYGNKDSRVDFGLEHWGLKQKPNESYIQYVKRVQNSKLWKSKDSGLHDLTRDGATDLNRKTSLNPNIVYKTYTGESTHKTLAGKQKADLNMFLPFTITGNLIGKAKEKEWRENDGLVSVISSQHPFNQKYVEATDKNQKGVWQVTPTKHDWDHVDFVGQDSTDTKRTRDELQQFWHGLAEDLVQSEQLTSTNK
Excerpt: as §4, §2, §3

[7] = biological target: Staphylococcus epidermidis strain 9 lipase variant H648K (His-648 to Lys), SEQ ID NO:16 (Staphylococcus epidermidis, UniProt P0C0R3, H648K); assay: Kinetic analysis of hydrolysis of p-nitrophenyl butyrate (p-nitrophenol formation), mutant H648K; type: biochemical; details: H648K vs wild-type, substrate p-nitrophenyl butyrate
Sequence of Staphylococcus epidermidis strain 9 lipase variant H648K (His-648 to Lys), SEQ ID NO:16 (P0C0R3 303-688 H648K): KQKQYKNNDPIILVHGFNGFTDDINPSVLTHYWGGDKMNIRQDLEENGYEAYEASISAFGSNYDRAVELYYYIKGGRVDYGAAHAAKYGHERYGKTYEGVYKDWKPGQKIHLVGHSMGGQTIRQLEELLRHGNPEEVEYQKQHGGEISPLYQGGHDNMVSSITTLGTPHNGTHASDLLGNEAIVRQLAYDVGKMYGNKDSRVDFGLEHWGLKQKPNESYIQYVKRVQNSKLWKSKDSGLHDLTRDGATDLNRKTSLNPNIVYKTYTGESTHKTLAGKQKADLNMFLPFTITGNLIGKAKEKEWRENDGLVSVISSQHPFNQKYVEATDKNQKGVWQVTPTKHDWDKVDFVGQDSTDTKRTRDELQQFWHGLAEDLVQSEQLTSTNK
Experimental: as §2

[8] = biological target: Staphylococcus epidermidis strain 9 lipase variant V649I (Val-649 to Ile), SEQ ID NO:17 (Staphylococcus epidermidis, UniProt P0C0R3, V649I); assay: Kinetic analysis of hydrolysis of p-nitrophenyl butyrate (p-nitrophenol formation), mutant V649I; type: biochemical; details: V649I vs wild-type; substrate p-nitrophenyl butyrate
Sequence of Staphylococcus epidermidis strain 9 lipase variant V649I (Val-649 to Ile), SEQ ID NO:17 (P0C0R3 303-688 V649I): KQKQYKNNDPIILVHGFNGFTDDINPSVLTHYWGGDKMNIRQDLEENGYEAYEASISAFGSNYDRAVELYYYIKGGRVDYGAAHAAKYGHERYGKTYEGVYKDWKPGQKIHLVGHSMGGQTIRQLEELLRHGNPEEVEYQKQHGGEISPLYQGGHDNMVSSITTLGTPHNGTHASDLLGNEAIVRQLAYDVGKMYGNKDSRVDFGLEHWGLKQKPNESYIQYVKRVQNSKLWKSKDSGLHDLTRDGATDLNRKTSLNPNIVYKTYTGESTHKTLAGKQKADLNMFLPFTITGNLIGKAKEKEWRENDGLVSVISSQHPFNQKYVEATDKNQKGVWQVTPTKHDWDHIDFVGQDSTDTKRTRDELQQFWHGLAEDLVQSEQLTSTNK
Excerpt: as §4, §2

[9] = tested on: S. hyicus lipase; details: Chang et al. (1996); cited from earlier work

Molecule: Staphylococcus epidermidis strain 9 lipase, wild-type (recombinant 43 kDa "Lys-303" lipase, C-terminal His-tag), SEQ ID NO:14 (Staphylococcus epidermidis)
- Km [1]: 900 ± 80 µM
- kcat [1]: 25.1 ± 0.6 s⁻¹
- kcat/Km [1]: 27900 M⁻¹ s⁻¹

Molecule: Staphylococcus epidermidis strain 9 lipase variant V649I (Val-649 to Ile), SEQ ID NO:17 (Staphylococcus epidermidis; V649I)
- Km [2]: 3020 ± 210 µM
- kcat [2]: 336 ± 15.7 s⁻¹
- kcat/Km [2]: 111000 M⁻¹ s⁻¹

Molecule: Staphylococcus epidermidis strain 9 lipase variant H648K (His-648 to Lys), SEQ ID NO:16 (Staphylococcus epidermidis; H648K)
- Km [3]: 950 ± 350 µM
- kcat [3]: 2.6 ± 0.9 s⁻¹
- kcat/Km [3]: 2700 M⁻¹ s⁻¹

Molecule: Staphylococcus epidermidis strain 9 lipase variant M419A (Met-419 to Ala), SEQ ID NO:15 (Staphylococcus epidermidis; M419A)
- Km [4]: 3970 ± 120 µM
- kcat [4]: 218 ± 14 s⁻¹
- kcat/Km [4]: 54800 M⁻¹ s⁻¹

Molecule: CCCC(=O)Oc1ccc([N+](=O)[O-])cc1 [p-nitrophenyl butyrate]
- kcat [5]: 25.1 s⁻¹
- increase in catalytic efficiency (kcat/Km) in comparison with the wild-type enzyme [6]: 2.0 fold
- kcat compared with the wild-type enzyme (decreased to) [7]: 10.4%
- change in the Km compared with the wild-type enzyme ([7]; in words): little change
- increase in kcat in comparison with the wild-type enzyme [8]: 13.4 fold
- increase in the kcat/Km in comparison with the wild-type enzyme [8]: 4.0 fold
- Km [9]: 2070 µM
- kcat [9]: 0.53 s⁻¹
- kcat/Km [9]: 257 M⁻¹ s⁻¹
